In the experiment the target is BclXL_FL, full-length human BclXL (residues 1–233) (human), Q07817. The experiment in a line: ITC. On the technique in general: Isothermal titration calorimetry measures the heat released or taken up as one component is titrated into another.
Sequence of BclXL_FL, full-length human BclXL (residues 1–233) (human), Q07817 (Q07817 whole entry, the tested form may be a part): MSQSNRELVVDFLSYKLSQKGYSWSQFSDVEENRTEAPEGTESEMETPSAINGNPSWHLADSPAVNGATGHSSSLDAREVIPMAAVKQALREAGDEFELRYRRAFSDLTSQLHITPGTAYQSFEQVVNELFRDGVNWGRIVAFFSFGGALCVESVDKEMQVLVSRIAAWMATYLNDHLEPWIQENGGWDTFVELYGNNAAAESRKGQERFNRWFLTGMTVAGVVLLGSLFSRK

For DIIRNIARHLAQVGDSMDRS (modifications not checked) [Bid_BH3 peptide (20-mer spanning the BH3 domain of human Bid)], the Kd turned out to be 9.97 µM and the dH was -18.7 kcal/mol.

The Kd is the free concentration of one partner at which half of the binding sites on the other are occupied at equilibrium, for simple one-to-one binding. Higher therefore signals a looser complex.

The record behind these values is publication PMC3268818.
